Assay results reported in patent EP0751225B1, “Process for the identification of proteolytic activities and/or inhibitors thereof” (TECNOGEN S.C.P.A., priority 1990, dated 1992).

Molecular target: T1, ET [16-29] (Homo sapiens, UniProt P05305)
T1 construct: made in house; host or cells: chemical solid-phase peptide synthesis (Fmoc)
Test: Capacity of affinity chromatography columns prepared with the immobilized peptides (retention of injected ET [16-29])
Format: binding
Conditions: 500 microlitres of ET [16-29] at 1 mg/ml injected; peptide immobilized on EUPERGIT C30 N; 0.1 M TRIS HCL pH 6.8, 1 ml/min
Procedure: The peptides Δ ET [16-29] and 8 Δ ET [16-29] have immobilized on a support previously activated through the introduction of epoxide groups (EUPERGIT C30 N), employing the same peptide/support ratio. The peptides 8 Δ ET [16-29] (2 mg) and Δ ET [16-29] (2 mg) have been dissolved separately in 10 ml of 0.1 M […], 0.5 M NaCl, pH 8.5, and added separately to two aliquots of 1 g of EUPERGIT C30 N. The mixtures have been incubated for 24 hours under stirring at room temperature. The introduction of the peptides within the resin has been followed by means of RP-HPLC, and after 24 hours an amount of about 80 % of the peptide initially present in the two preparations turned out to be covalently linked to the support. Such incorporation percentage has been then confirmed by analysis of amino acids, which analysis were carried out on weighed amounts of the two derivatized resins.
The two derivatized peptide supports were employed for filling two glass columns for affinity chromatography (80 x 6.6 mm I.D., total volume 2.3 ml) that were equilibrated with 0.1 M TRIS* HCL, at pH 6.8 and with a flowrate of 1 ml/min. The eluent was continuously monitored by means of optical absorption determinations at 280 nm wavelength. For determining the capacity of the columns, 500 microlitres of ET [16-29] dissolved at a concentration of 1 mg/ml in the elution buffer were injected. […]

RKFLAGLRARRLKF [Δ ET [16-29]]
injected material retained by the column: 50%
